Laboratory results reported in the RNAGym collection of RNA variant scans (doi:10.7554/elife.80360).

B1: CPEB3 Ribozyme (parent)
chain: GGGGGCCACAGCAGAAGCGUUCACGUCGCGGCCCCUGUCAGAUUCUGGUGAAUCUGCGAAUUCUGCUGU

Variants of: B1
Test: self-cleavage, relative activity (ratio to wild type); higher = more cleavage; co-transcriptional

Variant	self-cleavage
GGGGGCCACAGCAGAAGCGUUCACGUCGCGGCCACUGUCAGAUUCUGGUGAAUCUUCGAAUUCUGCUGU	0.679
GGGGGCCACAGCAGAAGCGUUCACGUCGCGGCCACUGUCAGAUUCUGGUGAAUCUCCGAAUUCUGCUGU	0.438
GGGGGCCACAGCAGAAGCGUUCACGUCGCGGCUCCUGUCAGAUUCUGGUGAAGCUGCGAAUUCUGCUGU	0.727
GGGGGCCACAGCAGAAGCGUUCACGUCGCGGCUCCUGUCAGAUUCUGGUGAAACUGCGAAUUCUGCUGU	0.932
GGGGGCCACAGCAGAAGCGUUCACGUCGCGGCUCCUGUCAGAUUCUGGUGAACCUGCGAAUUCUGCUGU	0.861
GGGGGCCACAGCAGAAGCGUUCACGUCGCGGCUCCUGUCAGAUUCGGGUGAAUCUGCGAAUUCUGCUGU	0.979
GGGGGCCACAGCAGAAGCGUUCACGUCGCGGCUCCUGUCAGAUUCCGGUGAAUCUGCGAAUUCUGCUGU	0.977
GGGGGCCACAGCAGAAGCGUUCACGUCGCGGCUCCUGUCAGAUUCAGGUGAAUCUGCGAAUUCUGCUGU	0.98
GGGGGCCACAGCAGAAGCGUUCACGUCGCGGCCACUGUCAGAUUCUGGUGAAUCUGCGAAUUCUUCUGU	0.57
GGGGGCCACAGCAGAAGCGUUCACGUCGCGGCCACUGUCAGAUUCUGGUGAAUCUGCGAAUUCUACUGU	0.617
GGGGGCCACAGCAGAAGCGUUCACGUCGCGGCCACUGUCAGAUUCUGGUGGAUCUGCGAAUUCUGCUGU	0.469
GGGGGCCACAGCAGAAGCGUUCACGUCGCGGCCACUGUCAGAUUCUGGUGAAUCUGCGAAUUCUGGUGU	0.667
GGGGGCCACAGCAGAAGCGUUCACGUCGCGGCCACUGUCAGAUUCUGGUGAAUCUGCGAAUUCUGUUGU	0.874
GGGGGCCACAGCAGAAGCGUUCACGUCGCGGCUCCUGUCAGAUUCUGGUGAAUCUGCGAAUUCUGCGGU	0.982
GGGGGCCACAGCAGAAGCGUUCACGUCGCGGCUCCUGUCAGAUUCUGGUGAAUCUGCGAAUUCUGCAGU	0.971
GGGGGCCACAGCAGAAGCGUUCACGUCGCGGCCACUGUCAGAUUCUGGUGAAUCUGCGAAUUUUGCUGU	0.817
GGGGGCCACAGCAGAAGCGUUCACGUCGCGGCCACUGUCAGAUUCUGGUGAAUCUGCGAAUUAUGCUGU	0.495
GGGGGCCACAGCAGAAGCGUUCACGUCGCGGCCACUGUCAGAUUCUGGUGAAUCUGCGAAUUGUGCUGU	0.411
GGGGGCCACAGCAGAAGCGUUCACGUCGCGGCUCCUGUCAGAUUCUGGUGAAUCUGCGAAUUCUUCUGU	0.749
GGGGGCCACAGCAGAAGCGUUCACGUCGCGGCUCCCGUCAGAUUCUGGUGAAUCUGCGAAUUCUGCUGU	0.874
GGGGGCCACAGCAGAAGCGUUCACGUCGCGGCUCCGGUCAGAUUCUGGUGAAUCUGCGAAUUCUGCUGU	0.295
GGGGGCCACAGCAGAAGCGUUCACGUCGCGGCCACUGUCAGAUUUUGGUGAAUCUGCGAAUUCUGCUGU	0.798
GGGGGCCACAGCAGAAGCGUUCACGUCGCGGCUCCUGUCAGAUUCUGGUGAAUCUGCGAAUUCUGCUGG	1.06
GGGGGCCACAGCAGAAGCGUUCACGUCGCGGCUCCUGUCAGAUUCUGGUGAAUCUGCGAAUUCUGCUGC	1.05
GGGGGCCACAGCAGAAGCGUUCACGUCGCGGCUCCUGUCAGAUUCUGGUGAAUCUGCGAAUUCUGCUGA	1.01
GGGGGCCACAGCAGAAGCGUUCACGUCGCGGCCACUGUGAGAUUCUGGUGAAUCUGCGAAUUCUGCUGU	0.538

Variant	self-cleavage
GGGGGCCACAGCAGAAGCGUUCACGUCGCGGCCACUGUUAGAUUCUGGUGAAUCUGCGAAUUCUGCUGU	0.467
GGGGGCCACAGCAGAAGCGUUCACGUCGCGGCUCCUGUCAGAUUCUGGUGAAUCUGCGAACUCUGCUGU	0.913
GGGGGCCACAGCAGAAGCGUUCACGUCGCGGCUCCUGUCAGAUUCUGGUGAAUCUGCGAAAUCUGCUGU	0.905
GGGGGCCACAGCAGAAGCGUUCACGUCGCGGCUCCUGUCAGAUUCUGGUGAAUCUGCGAAGUCUGCUGU	0.82
GGGGGCCACAGCAGAAGCGUUCACGUCGCGGCUCCUGUCAGAUUCUGGUGAAUCAGCGAAUUCUGCUGU	0.965
GGGGGCCACAGCAGAAGCGUUCACGUCGCGGCUCCUGUCAGAUUCUGGUGAAUCUGCGAAUUCAGCUGU	0.919
GGGGGCCACAGCAGAAGCGUUCACGUCGCGGCUCCUGUCAGAUUCUGGUGAAUCUGCGAAUUCGGCUGU	0.941
GGGGGCCACAGCAGAAGCGUUCACGUCGCGGCUCCUGUCAGAUUCUGGUGAAUCUGCGAAUUCCGCUGU	0.92
GGGGGCCACAGCAGAAGCGUUCACGUCGCGGCCACUGUCAGAUUCUGGUUAAUCUGCGAAUUCUGCUGU	0.8
GGGGGCCACAGCAGAAGCGUUCACGUCGCGGCCAUUGUCAGAUUCUGGUGAAUCUGCGAAUUCUGCUGU	0.226
GGGGGCCACAGCAGAAGCGUUCACGUCGCGGCCAGUGUCAGAUUCUGGUGAAUCUGCGAAUUCUGCUGU	0.177
GGGGGCCACAGCAGAAGCGUUCACGUCGCGGCCACUGUCAGAUUCUGGUGAAUCUGGGAAUUCUGCUGU	0.285
GGGGGCCACAGCAGAAGCGUUCACGUCGCGGCCACUGUCAGAUUCUGGUGAAUCUGUGAAUUCUGCUGU	0.285
GGGGGCCACAGCAGAAGCGUUCACGUCGCGGCCACUGUCAGAUUCUGGUGAAUCUGAGAAUUCUGCUGU	0.255
GGGGGCCACAGCAGAAGCGUUCACGUCGCGGCCACUGUCAGAUUCUGGUGAAUCUGCAAAUUCUGCUGU	0.656
GGGGGCCACAGCAGAAGCGUUCACGUCGCGGCCACUGUCAGAUUCUGUUGAAUCUGCGAAUUCUGCUGU	0.877
GGGGGCCACAGCAGAAGCGUUCACGUCGCGGCCACUGUCAGAUUCUGCUGAAUCUGCGAAUUCUGCUGU	0.857
GGGGGCCACAGCAGAAGCGUUCACGUCGCGGCUCCUGUCAGAAUCUGGUGAAUCUGCGAAUUCUGCUGU	0.915
GGGGGCCACAGCAGAAGCGUUCACGUCGCGGCUCCUGUCAGAGUCUGGUGAAUCUGCGAAUUCUGCUGU	0.678
GGGGGCCACAGCAGAAGCGUUCACGUCGCGGCUCCUGUCAGAUUCUGGCGAAUCUGCGAAUUCUGCUGU	1.02
GGGGGCCACAGCAGAAGCGUUCACGUCGCGGCUCCUGUCAGAUUCUGGGGAAUCUGCGAAUUCUGCUGU	0.996
GGGGGCCACAGCAGAAGCGUUCACGUCGCGGCUCCUGUCAGAUUCUGGAGAAUCUGCGAAUUCUGCUGU	0.97
GGGGGCCACAGCAGAAGCGUUCACGUCGCGGCCACUGUCAGAUUCUGGUGAAUUUGCGAAUUCUGCUGU	0.69
GGGGGCCACAGCAGAAGCGUUCACGUCGCGGCUCCUGUCAGAUUCUGGUGAAUCUCCGAAUUCUGCUGU	0.849
GGGGGCCACAGCAGAAGCGUUCACGUCGCGGCUCCUGUCAGAUUCUGGUGAAUCUACGAAUUCUGCUGU	0.949
GGGGGCCACAGCAGAAGCGUUCACGUCGCGGCUCCUGUCAGAUUCUGGUGAAUCUUCGAAUUCUGCUGU	0.963

Variant	self-cleavage
GGGGGCCACAGCAGAAGCGUUCACGUCGCGGCCACUGUCAGAUUCUGGUGACUCUGCGAAUUCUGCUGU	0.597
GGGGGCCACAGCAGAAGCGUUCACGUCGCGGCCACUGUCAGAUUCUGGUGAGUCUGCGAAUUCUGCUGU	0.497
GGGGGCCACAGCAGAAGCGUUCACGUCGCGGCCACAGUCAGAUUCUGGUGAAUCUGCGAAUUCUGCUGU	0.229
GGGGGCCACAGCAGAAGCGUUCACGUCGCGGCUCCUGUCAGAUGCUGGUGAAUCUGCGAAUUCUGCUGU	0.945
GGGGGCCACAGCAGAAGCGUUCACGUCGCGGCCACUGUCAUAUUCUGGUGAAUCUGCGAAUUCUGCUGU	0.339
GGGGGCCACAGCAGAAGCGUUCACGUCGCGGCCACUGUCACAUUCUGGUGAAUCUGCGAAUUCUGCUGU	0.33
GGGGGCCACAGCAGAAGCGUUCACGUCGCGGCCACUGUCAAAUUCUGGUGAAUCUGCGAAUUCUGCUGU	0.341
GGGGGCCACAGCAGAAGCGUUCACGUCGCGGCCACUGUCAGAUUCUGGUGAAUCUGCGAAUUCUGCUGU	0.869
GGGGGCCACAGCAGAAGCGUUCACGUCGCGGCCACUGUCAGCUUCUGGUGAAUCUGCGAAUUCUGCUGU	0.46
GGGGGCCACAGCAGAAGCGUUCACGUCGCGGCCACUGUCAGAUUCUCGUGAAUCUGCGAAUUCUGCUGU	0.887
GGGGGCCACAGCAGAAGCGUUCACGUCGCGGCCACUGUCAGAUUCUUGUGAAUCUGCGAAUUCUGCUGU	0.914
GGGGGCCACAGCAGAAGCGUUCACGUCGCGGCCACUGUCAGAUUCUAGUGAAUCUGCGAAUUCUGCUGU	0.915
GGGGGCCACAGCAGAAGCGUUCACGUCGCGGCUCCUGUCAGAUUCUGGUAAAUCUGCGAAUUCUGCUGU	0.979
GGGGGCCACAGCAGAAGCGUUCACGUCGCGGCUCCUGUCAGAUUCUGGUCAAUCUGCGAAUUCUGCUGU	1
GGGGGCCACAGCAGAAGCGUUCACGUCGCGGCUCCUGCCAGAUUCUGGUGAAUCUGCGAAUUCUGCUGU	0.899
GGGGGCCACAGCAGAAGCGUUCACGUCGCGGCUCCUGGCAGAUUCUGGUGAAUCUGCGAAUUCUGCUGU	0.215
GGGGGCCACAGCAGAAGCGUUCACGUCGCGGCCACUGUCUGAUUCUGGUGAAUCUGCGAAUUCUGCUGU	0.468
GGGGGCCACAGCAGAAGCGUUCACGUCGCGGCCACUGUCGGAUUCUGGUGAAUCUGCGAAUUCUGCUGU	0.788
GGGGGCCACAGCAGAAGCGUUCACGUCGCGGCCACUUUCAGAUUCUGGUGAAUCUGCGAAUUCUGCUGU	0.26
GGGGGCCACAGCAGAAGCGUUCACGUCGCGGCCACUAUCAGAUUCUGGUGAAUCUGCGAAUUCUGCUGU	0.301
GGGGGCCACAGCAGAAGCGUUCACGUCGCGGCCACUGUCAGAUUCUGGUGAAUCUGCGUAUUCUGCUGU	0.436
GGGGGCCACAGCAGAAGCGUUCACGUCGCGGCCACUGUCAGAUUCUGGUGAAUCUGCGGAUUCUGCUGU	0.609
GGGGGCCACAGCAGAAGCGUUCACGUCGCGGCCACUGUCAGAUUCUGGUGAAUCUGCGAAUUCUGCUCU	0.954
GGGGGCCACAGCAGAAGCGUUCACGUCGCGGCCACUGUCAGAUUCUGGUGAAUCUGCGAAUUCUGCUAU	0.935
GGGGGCCACAGCAGAAGCGUUCACGUCGCGGCCACUGUCAGAUUCUGGUGAAUCUGCGAAUUCUGCUUU	0.956
GGGGGCCACAGCAGAAGCGUUCACGUCGCGGCUCCUGUCAGAUUCUGGUGAAUCUGCGAAUUCUGCUCU	1.02
